Conditions in all cases: both partners purified
The target in assay [1] is T1, cleaved high-molecular-weight kininogen (HKa), purified (Homo sapiens, UniProt P01042, biotin (biotinylated HKa in the Fab screening ELISA) | biotin (biotinylated HKa in the Fab screening ELISA)).
T1 construct: heavy chain of HKa, the two-chain disulfide-linked product of high-molecular-weight kininogen after release of bradykinin, human; light chain of HKa, human; the purified HKa standard mainly consists of the 46-kDa light chain; also called cleaved HK; purified HKa standard protein; source: bought: Enzyme Research Laboratories
Nature of the assay: SPR; in the absence of zinc chloride. (In general: SPR reads the build-up and loss of mass on a sensor chip optically.)

The target of assay [2] is T1, cleaved high-molecular-weight kininogen …. Nature of the assay: SPR; in the presence of zinc chloride.
Assay [3] concerns the target T2, cleaved high-molecular-weight kininogen (HKa) (Homo sapiens, UniProt P01042).
T2 construct: the two chains are linked by a disulfide; light chain of HKa (56-kDa or 46-kDa form); the purified HKa standard protein mainly consists of the 46-kDa light chain; also called cleaved HK; source: bought: Enzyme Research Laboratories
Nature of the assay: SPR; HKa immobilised by amine coupling on a CM5 chip (~400 RU), M4-B4 injected 2 min at 50 uL/min, 15 min dissociation; Biacore 3000, 25°C, HBS-P (10 mM HEPES pH 7.4, 150 mM NaCl, 0.005% P20); no added ZnCl2; 1:1 model.

The target of assay [4] is T2, cleaved high-molecular-weight kininogen …. Nature of the assay: SPR; HKa immobilised by amine coupling on a CM5 chip (~400 RU), M4-B4 injected 2 min at 50 uL/min, 15 min dissociation; Biacore 3000, 25°C, HBS-P (10 mM HEPES pH 7.4, 150 mM NaCl, 0.005% P20) with 200 uM ZnCl2; regeneration 10 mM glycine pH 1.5; 1:1 model.

Several values for one entry are separate records, joined by “and”; a condition that tells them apart may be missing. Equal entries are not always repeated.

T2 sequence (P01042 whole entry, looked up): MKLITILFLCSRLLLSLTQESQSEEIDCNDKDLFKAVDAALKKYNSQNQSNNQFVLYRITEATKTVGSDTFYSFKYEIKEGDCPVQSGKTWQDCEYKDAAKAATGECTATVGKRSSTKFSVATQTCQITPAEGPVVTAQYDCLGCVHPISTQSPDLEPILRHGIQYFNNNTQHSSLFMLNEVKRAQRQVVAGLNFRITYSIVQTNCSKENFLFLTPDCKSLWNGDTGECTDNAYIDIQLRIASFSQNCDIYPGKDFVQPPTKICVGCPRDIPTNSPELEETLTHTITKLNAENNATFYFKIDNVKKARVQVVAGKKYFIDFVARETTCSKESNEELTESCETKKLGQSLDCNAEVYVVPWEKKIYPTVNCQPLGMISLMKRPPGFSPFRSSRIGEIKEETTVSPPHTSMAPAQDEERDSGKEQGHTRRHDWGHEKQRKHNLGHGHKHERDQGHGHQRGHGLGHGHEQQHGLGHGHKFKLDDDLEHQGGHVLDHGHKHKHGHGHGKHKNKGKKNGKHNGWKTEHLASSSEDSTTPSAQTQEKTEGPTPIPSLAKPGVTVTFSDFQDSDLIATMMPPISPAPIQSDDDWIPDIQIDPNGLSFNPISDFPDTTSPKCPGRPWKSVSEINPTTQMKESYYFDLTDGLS

B1: M4-B4 antibody (Fab or IgG, format not told for the experiment) (antibody, V domains shown)
VH: EVQLLESGGGLVQPGGSLRLSCAASGFTFSFYVMVWVRQAPGKGLEWVSGISPSGGNTAYADSVKGRFTISRDNSKNTLYLQMNSLRAEDTAVYYCARKLFYYDDTKGYFDFWGQGTLVTVSS
VL: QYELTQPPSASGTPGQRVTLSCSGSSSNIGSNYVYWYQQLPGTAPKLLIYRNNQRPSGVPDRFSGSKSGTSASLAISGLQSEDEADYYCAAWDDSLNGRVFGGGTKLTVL
notes: variable part as the heavy chain of m1; as the light chain of m1; The optimised ELISA coated 'the M4-B4 Fab or IgG'; also called HKa-specific antibody
For the molecule B1, the values for the Kd in assay [1] and in assay [2] were 6.08 ± 0.26 nM and 1.06 ± 0.25 nM, respectively.

B2: M4-B4 (antibody, V domains shown)
VH: B1 VH
VL: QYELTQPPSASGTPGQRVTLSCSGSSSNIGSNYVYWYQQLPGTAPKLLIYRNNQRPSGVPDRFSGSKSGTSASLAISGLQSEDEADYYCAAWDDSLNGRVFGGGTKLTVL
notes: The legend of the SPR says only 'M4-B4 injected'; also called M004-B04; 559B-M0004-B04; source: Fab: E. coli, purified (protein A Sepharose); IgG1: 293T cells, transiently expressed, purified (protein A Sepharose)
For B2, in assay [3], the Kd is 5.9 nM and 6.26 nM; the koff was 0.0067 s⁻¹ and 0.00616 s⁻¹ and 0.00643 s⁻¹; the kon was 1.1e+06 M⁻¹ s⁻¹ (2×) and 984000 M⁻¹ s⁻¹. In assay [4], the Kd is 1.09 nM and 1.24 nM and 0.881 nM; the koff is 0.00125 s⁻¹ and 0.00172 s⁻¹ and 0.00156 s⁻¹ and 0.00164 s⁻¹; the association rate constant (kon) is 1.38e+06 M⁻¹ s⁻¹ and 1.77e+06 M⁻¹ s⁻¹ and 1.58e+06 M⁻¹ s⁻¹ and 1.15e+06 M⁻¹ s⁻¹.

Broadly, the Kd is the equilibrium constant for the complex coming apart. For orientation: koff means the first-order rate constant of dissociation. High values mean a short-lived complex, low ones a long-lived complex. The term kon denotes a measure of how fast the partners come together. A higher kon goes with fast association.

The values are drawn from paper PMC11464748, “A novel assay of excess plasma kallikrein-kinin system activation in hereditary angioedema” (Frontiers in Allergy, 2024).
